Patent publication KR20140116416A

Target: H5 hemagglutinin expressed on transfected cells (pJK2b-HA5) (influenza A virus, subtype H5; strain not stated)
Assay: cell-based or functional assay

B1: 항체 4D9 (antibody 4D9), purified (antibody, V domains shown)
VH: QVTLRESGPGLVKPSETLSLTCTISGASINTDYWSWIRQPPGKGLEWIGYIYYRGRTNYNPSLRSRVTISVDTSKNQFSLQMTSMTAADTAVYYCARDVTGISRENAFDIWGQGTLVTVSS
VL: AIRMTQSPSSLSASVGDRVTITCRASQSISGYLNWYQQKPGKAPKLLIYAASSLQSGVPSRFSGSGSGTDFTLTISSLQPEDFATYYCQQSYSIPTTFGQGTRLEIK
Which cell fusion inhibition does the source give for B1 here?
Its cell fusion inhibition is 50 to 60%.
